Test results: the supplement of paper PMC10567573

B1: ANKRD17 (parent)
chain: EVLRRLTSSVSCALDEAAAALTRM

Variants of: B1
Test: protein stability index of a GFP-peptide fusion (GPS, HEK-293T) (PSI 1-6); higher = more stable
Conditions: c terminus: a fixed tail appended
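Further: lentivirally expressed fusions sorted by FACS into six bins by GFP to DsRed ratio, PSI derived from sequencing read proportions per bin multiplied by bin number.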

Protein stability index, by site and new letter:
E1: S 2.2 | F 1.73 | P 2.48 | R 3.12 | M 1.38 | G 2.73 | C 1.94 | T 2.08 | V 2.42
A18: G 1.85 | N 1.8 | E 1.24 | Q 2.4 | P 2.72 | R 2.43 | V 1.8 | I 2.33 | D 1.89
C12: K 2.73 | Q 2.41 | A 3.05 | V 2.48 | F 1.78 | S 2.69 | P 1.91
A19: E 2.12 | H 1.78 | G 2.3 | K 2.6 | L 2.35 | I 1.88
L3: D 3.35 | S 2.98 | A 1.83 | T 1.55 | W 1.4 | I 1.23 | G 3.68 | R 2.17 | Y 2.44
A20: N 3.01 | V 1.91 | H 1.52 | L 1.45 | R 2.64 | E 3.31 | D 1.65 | W 2.48 | C 2.73
R5: D 3.56 | P 2.02 | L 1.59 | H 2.23 | S 2.18
A13: S 1.34 | K 2.55 | E 2.34 | W 2.07 | C 2.58 | Y 1.66 | Q 1.59 | F 2.2 | T 2.38
E16: Q 2.56 | S 2.96 | T 1.88 | L 3.18 | C 2.46 | V 1.6
S11: N 2.65 | F 1.12 | P 2.79 | A 1.43 | Y 2.26 | M 2.22
T7: P 2.52 | A 2.96 | R 3 | S 2.09 | K 3.26 | F 1.66 | D 1.81 | V 3 | Y 2.2 | Q 2.6 | W 1.98 | M 2.05
R23: I 1.92 | F 4.05 | V 1.02 | G 2.35 | Q 1.74 | A 2.91 | E 2.64 | K 1.21 | P 2.15 | D 2.8
T22: Q 3 | F 2.21 | N 1.93 | I 2.36 | Y 1.85 | K 1.86
V10: K 2.15 | D 3.61 | S 1.83 | R 1.07 | C 1.98 | I 2.13 | L 2.21 | N 1.94 | G 1.1 | A 3.08
L14: F 1.23 | P 1.93 | R 1.57 | V 1.77 | E 3.61 | Q 2.48 | C 2.2 | W 1.81 | H 2.13
L6: I 1.67 | Q 2.95 | W 2 | Y 2.28 | K 2.17 | S 1.73
L21: H 1.89 | V 2.04 | R 5.02 | W 1.6
D15: N 3.18 | Q 1.87 | H 1.97 | P 2.37
V2: H 3.64 | M 2.56 | D 2.77 | W 1.69 | A 2.96 | T 2.79 | Y 2.08 | L 2.35 | K 2.33 | P 2.43
M24: D 1.43 | S 2.42
R4: T 2.1 | F 1.03 | C 1.74 | S 1.05
S9: E 1.47 | T 1.66 | Y 1.58 | P 1.94 | M 2.49 | C 1.87
S8: Y 1.99 | K 2.39 | W 3.21 | A 1.68 | F 4.21 | P 1.73
A17: M 1.85 | T 2.13 | Y 2.49
